Results from US20240117022A1 (GANYMED PHARMACEUTICALS, published 2024).
One block for each binder: values may come before it.

Columns and labels:
murine CLD18A1 [1] = biological target: T1, murine CLD18A1 (mouse, UniProt P56857 1-264); experiment: overview table of murine antibodies
T1 construct: Transiently expressed on HEK293 cells; also called mouse CLD18A1; NP_062789

human CLD18A1 [2] = biological target: T2, human CLD18A1 (human, UniProt P56856 1-261); experiment: overview table of murine antibodies
T2 construct: Expressed on transfected HEK293 or CHO cells; also called claudin 18 splice variant 1; NP_057453

human CLD18A1 [3] = biological target: T2, human CLD18A1; experiment: overview table of chimeric antibodies
human CLD18A1 [4] = biological target: T2, human CLD18A1; experiment: flow cytometry on HEK293-CLD18A1 cells
human CLD18A1 [5] = biological target: T2, human CLD18A1; experiment: summary of Example 10
murine CLD18A1 [6] = biological target: T1, murine CLD18A1; experiment: summary of Example 10

B1: 163E12 (antibody, IgG3, V domains shown)
VH: QIQLVQSGPELKKPGETVKISCKASGYTFTNYGMNWVKQAPGKGLKWMGWINTNTGEPTYAEEFKGRFAFSLETSASTAYLQINNLKNEDTATYFCARLGFGNAMDYWGQGTSVTVSS
VL: DIVMTQSPSSLTVTAGEKVTMSCKSSQSLLNSGNQKNYLTWYQQKPGQPPKLLIYWASTRESGVPDRFTGSGSGTDFTLTISSVQAEDLAVYYCQNDYSYPLTFGAGTKLELK
notes: mouse monoclonal IgG3, kappa; also called 182-D1106-294; DSM ACC2809
- binding result (murine CLD18A1 [1]): no binding
- binding result (human CLD18A1 [2]): no binding

B2: ch-163E12 (antibody, V domains shown)
VH: QIQLVQSGPELKKPGETVKISCKASGYTFTNYGMNWVKQAPGKGLKWMGWINTNTGEPTYAEEFKGRFAFSLETSASTAYLQINNLKNEDTATYFCARLGFGNAMDYWGQGTSVTVSS
VL: DIVMTQSPSSLTVTAGEKVTMSCKSSQSLLNSGNQKNYLTWYQQKPGQPPKLLIYWASTRESGVPDRFTGSGSGTDFTLTISSVQAEDLAVYYCQNDYSYPLTFGAGTKLELKR
notes: Mouse/human chimeric, human gamma-1 and kappa constant regions; also called chimeric 163E12
- binding result (human CLD18A1 [3]): no binding

B3: 125E1 (antibody, IgG2a, V domains shown)
VH: QVQLQQSGAELARPGASVKLSCKASGYTFTDYYINWVKQRTGQGLEWIGEIYPGSGNTYYNEKFKGKATLTADKSSSTAYMQLSSLTSEDSAVYFCARSYGAFDYWGQGTTLTVSS
VL: DIVMTQSQKFMSTSVGDRVSITCKASQNVRTAVAWYQQKPGQSPKALIYLASNRHTGVPDRFTGSGSGTDFTLTISNVQSEDLADYFCLQHWNYPLTFGGGTKLEIK
notes: mouse monoclonal IgG2a, kappa; also called 182-D1106-279; DSM ACC2808
- binding result (murine CLD18A1 [1]): no binding
- binding result (human CLD18A1 [2]): no binding

B4: ch-125E1 (antibody, V domains shown)
VH: QVQLQQSGAELARPGASVKLSCKASGYTFTDYYINWVKQRTGQGLEWIGEIYPGSGNTYYNEKFKGKATLTADKSSSTAYMQLSSLTSEDSAVYFCARSYGAFDYWGQGTTLTVSS
VL: DIVMTQSQKFMSTSVGDRVSITCKASQNVRTAVAWYQQKPGQSPKALIYLASNRHTGVPDRFTGSGSGTDFTLTISNVQSEDLADYFCLQHWNYPLTFGGGTKLEIKR
notes: Mouse/human chimeric, human gamma-1 and kappa constant regions; also called chimeric 125E1
- binding result (human CLD18A1 [3]): no binding

The next lines start with the values.

- binding result (human CLD18A1 [4]): no binding
B5: ch-43A11 (antibody, V domains shown)
VH: QVQLQQSGAELMKPGASVKISCKATGYTFSSYWIEWVKQRPGHGLEWIGEILPGSGSTNYNEKFKGKATFTADTSSNTAYMQLSSLTSEDSAVYYCARYDYPWFAYWGQGTLVTVSA
VL: QIVLTQSPAIMSASPGEKVTITCSASSSVSYMHWFQQKPGTSPKLWIYSTSNLASGVPARFSGSGSGTSYSLTISRMEAEDAATYYCQQRSSYPPTFGGGTKLEIKR
notes: Mouse/human chimeric, human gamma-1 and kappa constant regions; also called chimeric 43A11

- binding result (human CLD18A1 [5]): no binding
B6: 43A11 (antibody, IgG2a, V domains shown)
VH: QVQLQQSGAELMKPGASVKISCKATGYTFSSYWIEWVKQRPGHGLEWIGEILPGSGSTNYNEKFKGKATFTADTSSNTAYMQLSSLTSEDSAVYYCARYDYPWFAYWGQGTLVTVSA
VL: QIVLTQSPAIMSASPGEKVTITCSASSSVSYMHWFQQKPGTSPKLWIYSTSNLASGVPARFSGSGSGTSYSLTISRMEAEDAATYYCQQRSSYPPTFGGGTKLEIK
notes: mouse monoclonal IgG2a, kappa; also called 182-D1106-062; DSM ACC2742

- binding result (human CLD18A1 [4]): no binding
B7: ch-166E2 (antibody, V domains shown)
VH: QVQLQQSGPELVKPGASVKMSCKASGYTFTDYVISWVKQRTGQGLEWIGEIYPGSGSTYYNEKFKGKATLTADKSSNTAYMQLSSLTSEDSAVYFCARGVLLRAMDYWGQGTSVTVSS
VL: DIVMSQSPSSLAVSAGEKVTMSCKSSQSLLNSRTRKNYLAWYQQKPGQSPKLLIYWASTRESGVPDRFTGSGSGTDFTLTISSVQAEDLAVYYCKQSYNLYTFGGGTKLEIKR
notes: Mouse/human chimeric, human gamma-1 and kappa constant regions; also called chimeric 166E2

- binding result (murine CLD18A1 [6]): no binding
- binding result (human CLD18A1 [5]): no binding
B8: 166E2 (antibody, IgG3, V domains shown)
VH: QVQLQQSGPELVKPGASVKMSCKASGYTFTDYVISWVKQRTGQGLEWIGEIYPGSGSTYYNEKFKGKATLTADKSSNTAYMQLSSLTSEDSAVYFCARGVLLRAMDYWGQGTSVTVSS
VL: DIVMSQSPSSLAVSAGEKVTMSCKSSQSLLNSRTRKNYLAWYQQKPGQSPKLLIYWASTRESGVPDRFTGSGSGTDFTLTISSVQAEDLAVYYCKQSYNLYTFGGGTKLEIK
notes: mouse monoclonal IgG3, kappa; also called 182-D1106-308
